Test results taken from US10640556B2, “Anti amphiregulin antibodies, compositions comprising same and uses thereof” (Yeda Research and Development Co. Ltd., priority 2015, dated 2020).

Columns and labels:
[1] = biological target: T1, EGFR (Homo sapiens, UniProt P00533); assay: Ligand-induced receptor ubiquitination assay (MCAS, MLS, H358, A549 cells); type: cell-based; design: endogenous in cells; host or cells: MCAS, MLS, H358, A549; conditions: 10 minutes, ligand 100 ng/mL; MCAS, MLS, H358, A549 cells
Protocol: (§1) The cells were later washed and lysed, and the associated radioactivity was determined. […] The cells were later washed and lysed in 1 N NaOH. Cell-associated radioactivity was determined. […] Washed immunocomplexes, along with whole extracts, were immunoblotted with the indicated antibodies.
For determination of ligand-induced receptor ubiquitination, cells were extracted in lysis buffer (50 mM HEPES pH 7.5, 150 mM NaCl, 10% glycerol, 1% Triton X-100, 1 mM EDTA, 1 mM EGTA, 10 mM NaF and 30 mM 3-glycerol phosphate) with freshly added 0.2 mM Na3VO4, a protease inhibitor cocktail and 2 mM N-ethylmaleimide (NEM). Twenty μL of protein G agarose beads and 1 μg of antibody were added to 500 μg of protein lysate. After a 2 hour incubation at 4° C., the immunoprecipitates were collected by centrifugation at 14,000 rpm at 4° C. for 1 minute. The supernatant was discarded and the pellet was washed thrice, prior to electrophoresis.

[2] = biological target: T1, EGFR; assay: Receptor downregulation assay in MCAS cells; type: cell-based; design: endogenous in cells; host or cells: MCAS, MLS, H358, A549; conditions: ligand 10 ng/ml
Protocol: as §1
At the end of the incubation period, the cells were placed on ice, washed with ice cold medium and subjected to mild acid wash (0.2 M Na-acetate buffer, pH 4.5, and 0.5 M NaCl) for 2 minutes, followed by 2 washes in ice cold medium. […] Finally, cells were lysed in 1 N NaOH, and their radioactivity was determined.

[3] = tested on: EGFR; assay: AREG-induced EGFR phosphorylation in HeLa cells (immunoblot); type: cell-based, human; conditions: for AREG-induced phosphorylation of EGFR: AREG 100 ng/ml, mAb 0.1-50 μg/ml, FIG. 10A
Protocol: FIGS. 6A-6F illustrate AR30, an anti-AREG monoclonal antibody, that inhibits auto-phosphorylation of EGFR. FIG. 6A is a photograph of a Coomassie blue staining of an acrylamide gel showing a purified fraction of AREG isolated from bacteria and purified on a NiNTA column. The molecular weight marker lane indicates a 15 kilodalton band; FIG. 6B, cells were seeded in a 24 well plate, washed and incubated with increasing concentrations of the purified TRX-AREG fusion protein (8.5, 85, 850, 8500 ng/ml). […] Following a 10-min long incubation, the cells were lysed and cleared extracts immunoblotted (IB) with an anti-phosphotyrosine antibody (PY-99); FIG. 6C, 96 well plates were coated with the indicated ligands (0.1 μg/ml), and then incubated for 3 hours with three different mAbs specific to AREG. Thereafter, wells were incubated for two hours with an anti-mouse antibody conjugated to HRP, followed by a 30 minutes incubation with ATBS. […] Serum from non-immunized mice was used as a negative control; FIG. 6E, HeLa cells were pre-incubated with (or without) mAb AR30 (20 μg/mL) and increasing concentrations of AREG. Thereafter, whole cell lysates were immunoblotted (IB) using an antibody specific to the phosphorylated form of EGFR (tyrosine 1068) or an antibody to EGFR; and FIG. 6F, HeLa cells were incubated with (or without) AREG (100 ng/mL) in the presence of increasing concentrations of mAb AR30 (5, 10, 20 and 50 μg/mL). Thereafter, cells were lysed and cleared extracts immunoblotted (IB) using the indicated antibodies.
FIG. 10A illustrates that anti-AREG mAbs inhibit ligand-induced activation of EGFR. HeLa cells were incubated with (or without) AREG (100 ng/ml) in the presence of increasing concentrations of mAb AR30, mAb AR 37 or mAb AR558 (0.1, 0.2, 0.5, 0.75, 1.5, 3.5, 6.25, 12.5, 25 and 50 μg/ml). Thereafter, cells were lysed and cleared extracts immunoblotted (IB) using the indicated antibodies, including an antibody specific to the phosphorylated (active) for of EGFR (pEGFR).

[4] = tested on: MCF10A cells; assay: MTS proliferation assay of MCF10A cells; type: cell-based, human; conditions: 72 h, absence or presence of AREG, relatively high mAb concentrations
Protocol: Proliferation assays using MTS were performed on MCF10A cells (1,000 cells per well). C ells were plated on the day before and treated for 72 h with the indicated mAbs (1, 5, 10, 20 or 50 ug/mL). Increasing concentrations of the indicated mAbs (either alone or in combination with AREG) were used in medium supplemented with 1% serum and AREG (either at 10 or 100 ng/mL).

[5] = biological target: T2, human AREG (Homo sapiens, UniProt P15514); assay: Antigenic determinant comparison of anti-AREG mAbs; type: binding; conditions: data not shown
T2 sequence (P15514 101-198 limits assumed): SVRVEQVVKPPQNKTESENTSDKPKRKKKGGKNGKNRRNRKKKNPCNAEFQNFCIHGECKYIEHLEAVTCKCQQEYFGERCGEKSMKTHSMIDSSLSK

[6] = tested on: Cal-27 human head and neck cancer cells; assay: Cal-27 head and neck tumor xenograft in nude mice; type: in vivo; conditions: Cal-27 tumors, 300 μg per injection intraperitoneally twice a week
Protocol: Female nude mice were inoculated subcutaneously with Cal-27 human head and neck cancer cells (2×10^6). Once tumors became palpable (5-7 days) mice were randomized and intraperitoneally injected with saline (Control), or with anti-AR mAbs: AR30, AR37 or AR558 (each at 300 μg per injection). Mice were treated with mAbs twice a week and tumor volume was followed. Shown are averages and SD values from at least 5 mice per group.
To test the ability of anti-AREG antibodies to reduce growth of human tumor cells implanted in immunocompromised mice, Cal 27 tumor cells were used which were inoculated subcutaneously and randomized for treatment after tumors became palpable. […] Furthermore, studies testing pairs of two mAbs illustrate their enhanced anti-tumor activities (data not shown), this can be attributed to the fact that the mAbs bind to distinct antigenic determinants of amphiregulin.

[7] = biological target: T2, human AREG; assay: Plasmon resonance and immunoblotting of EGF-family ligands with AR30; type: binding
Protocol: FIGS. 6A-6F illustrate AR30, an anti-AREG monoclonal antibody, that inhibits auto-phosphorylation of EGFR. FIG. 6A is a photograph of a Coomassie blue staining of an acrylamide gel showing a purified fraction of AREG isolated from bacteria and purified on a NiNTA column. The molecular weight marker lane indicates a 15 kilodalton band; FIG. 6B, cells were seeded in a 24 well plate, washed and incubated with increasing concentrations of the purified TRX-AREG fusion protein (8.5, 85, 850, 8500 ng/ml). […]
SPR was performed on a BIAcore 3000 instrument (BIAcore, Uppsala, Sweden). […] The net signal was obtained by subtracting the blank signal (plain dextran matrix) from the signal recorded from the immobilized surface. The association phase for analyte binding to all ligands was followed for 4 minutes, and dissociation phases were monitored for 3 minutes. […] The response was monitored as a function of time (sensorgram). […]
To functionally characterize a selected anti-AREG mAb, its specificity was tested using an Enzyme-Linked Immunosorbent Assay (ELISA) assay covered with different ligands. […] The AR30 affinity to the different ligand was assessed by Surface plasmon resonance (SPR).

[8] = tested on: MLS ovarian cancer cells; assay: MLS ovarian tumor xenograft in nude mice; type: in vivo; conditions: MLS tumors
Protocol: FIG. 7A, female nude mice (6 weeks old) were inoculated subcutaneously with MLS ovarian cancer cells (2×10^6 per animal). Once tumors became palpable, mice were randomized into two groups. Eleven mice were injected intraperitoneally with an anti-AREG mAb (AR30; 200 μg/mouse; twice a week, on days: 8, 11, 14, 17, and 21). The control group also included 11 mice. Shown are means±S.D. values; FIG. 7B, female nude mice (6 weeks old) were inoculated subcutaneously with MLS ovarian cancer cells (2×10^6 per animal). Once tumors became palpable, mice were randomized into four groups. One group (8 mice) was injected intraperitoneally with the AR30 mAb (100 μg/mouse twice a week, on days: 8, 14, 17, 21, 24 and 28). Another group (8 mice) was treated with cisplatin (5 mg/kg; on days 8 and 21). The fourth group was treated with a combination of mAb AR30 and cisplatin. The control group included 12 mice; and FIG. 7C, the indicated MLS tumors were excised, and their average weights determined. Representative tumors were photographed.
All animal procedures were approved by the Weizmann Institute of Science's review board. Female athymic NCr-nude mice (6 weeks old) were inoculated subcutaneously with 2×10^6 human ovarian MLS cancer cells. Once tumors became palpable (5-7 days), the mice were randomized into groups and injected intraperitoneally at the indicated time points with the indicated monoclonal antibodies, chemotherapy or the combination. Tumor volumes were monitored twice a week, and body weights were measured once a week.

| Molecule | ubiquitination of EGFR [1] | EGFR downregulation [2] | AREG-induced phosphorylation of EGFR [3] | inhibition of proliferation [4] | antigenic determinant targeted [5] | tumor growth [6] | binding of AR30 with human AREG [7] | recognition of other EGFR ligands [7] | tumor growth ([8]; AR30 100 μg/mouse twice a week, cisplatin 5 mg/kg, FIG. 7B) | tumor growth ([8]; antibodies injected into the peritoneum, six weeks, data not shown) | anti-tumor effect compared with cetuximab ([8]; six weeks, data not shown) | effect of AREG on receptor phosphorylation ([3]; AR30 5-50 μg/mL, FIGS. 6E-6F) | downstream signaling to ERK (phosphorylated ERK) ([3]; data not shown) |
| --- | --- | --- | --- | --- | --- | --- | --- | --- | --- | --- | --- | --- | --- |
| TGF-alpha: transforming growth factor alpha, high-affinity EGFR ligand | strong ubiquitination | 70-75% | – | – | – | – | – | – | – | – | – | – | – |
| AR558: anti-AREG monoclonal antibody from AREG knockout mice; heavy chain SEQ ID NO: 30, light chain SEQ ID NO: 46 (antibody, V domains shown, AR558 heavy chain IgG complete amino acids coding sequence; AR558 light chain (kappa) complete amino acids coding sequence) VH: EVQLQQSGAELVKPGASVKLSCTASGFNIKDTYMHWVKQRPEQGLEWIGRIDPANRSTKYDPKFQGKATITADTSSNTADLHLSSLTSEDTAVYYCARLYGDSVWYFDVWGAGTTVTVSSAKT VL: QIVLTQSPAILSASPGEKVTMTCRAGSSVNYIHWYQQKPGSSPKPWIYATSNLASGVPARFSGSGSGTSYSLTISRVEAEDAATYYCQQWSGYPPMLTFGAGTKLELKR | – | – | low concentrations of the antibodies were sufficient for blocking | Moderate inhibition | engages a different determinant of human AREG | exceeded the activity of either antibody | – | – | – | – | – | – | – |
| AR30: anti-AREG monoclonal antibody; heavy chain SEQ ID NO: 2, light chain SEQ ID NO: 16 (antibody, V domains shown, AR30 heavy chain (IgG) complete amino acids coding sequence; AR30 light chain (kappa) complete amino acids coding sequence) VH: EVQLQQSGAELVRSGASVKLSCTASGFNIKDSYMHWVKQRPEQGLEWIGWVDPDNGDTEYAPEFQGRATLTADTFSSTAYLQLTSLTSEDTAVYYCNAPSTYGHYGFAYWGQGTLVTVSA VL: DIVMTQAAPSVPVTPGESVSISCRSSKSLLHSNGKAYLYWFLQRPGQSPQLLIYRMSNLASGVPDRFSGSGSGTAFTLRISRVEAEDVGVYYCMQHLEYPLTFGAGTKLELKR | – | – | low concentrations of the antibodies were sufficient for blocking | Moderate inhibition | engages a different determinant of human AREG | comparably inhibit tumor growth | high affinity binding | recognized no other EGFR ligand, except for the human form of HB-EGF | only mildly inhibited | partly inhibited tumor growth | at least as effective as cetuximab | only partially reduced | insufficient for blocking downstream signaling to ERK |
